Three molecules from US20100184652A1 (NEW YORK BLOOD CENTER, published 2010) can be followed below.

The target in one experiment is T1, GST protein alone (UniProt P08515 1-218 = GST).
T1 construct: Control analyte in SPR; also called glutathione S-transferase
Description: SPR (Biacore 3000), peptide-coupled chip. As for the experimental part:
The top photograph was incubated with a biotinylated GST-Abl-SH3 domain (GST-Abl-SH3-B). No binding to biotinylated GST (GST-B) was observed (middle panel). […] Panels B-D show binding to the c-Abl SH2 domain. […] No binding to the GST protein alone was observed (not shown). RU, response unit.
Surface Plasmon Resonance Assay. Surface plasmon resonance assay was performed using a Biacore 3000 instrument (BlAcore Inc., Piscataway, N.J.). Biotinylated 14-residue peptides, pY213 or Y213, were coupled to surface of streptavidin-coated (SA) biosensor chip (BIAcore Inc., Piscataway, N.J.). Binding reactions were done in HBS-EP buffer, containing 10 mM HEPES, pH 7.4, 150 mM NaCl, 3 mM EDTA, and 0.05% (v/v) surfactant P20. The surface was regenerated before each new injection using 50 mM NaOH and 1M NaCl. The Biacore instrument was programmed to perform a series of binding assays with increasing concentrations of GST Abl SH2 polypeptide over the same regenerated surface. Sensograms (plots of changes in response unit on the surface as a function of time) derived were analyzed using the software BIAeval 3.0.
(Surface plasmon resonance follows binding to a sensor surface in real time, without labels.)

A further experiment addresses T2, biotinylated GST (UniProt P08515 1-218 = GST, biotinylated (sites not given)).
T2 construct: also called GST-B
Description: blot overlay with biotinylated GST. The method, then:
FIG. 2 is graphs and photographs of western blots showing the identification of the minimal binding region of c-Abl SH3 and SH2 domains in the N-terminus of Abi1. […] Recombinant GST fusion polypeptides containing the N-terminal terminal region of Abi1/Hsshb3p1 were separated on SDS polyacrylamide gels and transferred onto a nitrocellulose membrane. […] The top photograph was incubated with a biotinylated GST-Abl-SH3 domain (GST-Abl-SH3-B). No binding to biotinylated GST (GST-B) was observed (middle panel). […] Panels B-D show binding to the c-Abl SH2 domain. […] No binding to the GST protein alone was observed (not shown). RU, response unit.

Where no end group is shown, it is not given here. [ ]: non-standard residue; d: D form. pY = N[C@@H](Cc1ccc(OP(=O)(O)O)cc1)C(=O)O

T2 sequence (P08515 whole entry): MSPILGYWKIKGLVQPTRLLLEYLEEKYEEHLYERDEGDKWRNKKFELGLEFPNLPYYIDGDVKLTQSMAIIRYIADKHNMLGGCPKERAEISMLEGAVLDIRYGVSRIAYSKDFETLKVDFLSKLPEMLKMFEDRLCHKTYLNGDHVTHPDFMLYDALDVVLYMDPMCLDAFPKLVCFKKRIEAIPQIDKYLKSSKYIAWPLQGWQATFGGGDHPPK
T1 sequence (P08515 whole entry): as above

B1: pY213 peptide (14-residue Abi1 peptide containing phosphorylated tyrosine 213) (peptide)
peptide: VKPPTVPND[pY]MTSP
modifications: also: biotinylated (site not given here)
notes: Biotinylated and coupled to a streptavidin chip in SPR; also called phosphopeptide pY213
As for B1, the binding result with GST protein alone is listed as “no binding”.

B2: GST fusion polypeptide of Abi1 N1-172 (other)
chain: MAELQMLLEEEIPSGKRALIESYQNLTRVADYCENNYIQATDKRKALEETKAYTTQSLASVAYQINALANNVLQLLDIQASQLRRMESSINHISQTVDIHKEKVARREIGILTTNKNTSRTHKIIAPANMERPVRYIRKPIDYTVLDDVGHGVKWLKAKHGNNQPARTGTLS
notes: not shown: glutathione S-transferase (GST) from pGEX-2T
In the case of B2, in the experiment with biotinylated GST, the binding result is reported as “no binding”.

B3: GST fusion polypeptide of Abi1 N1-187 (other)
chain: MAELQMLLEEEIPSGKRALIESYQNLTRVADYCENNYIQATDKRKALEETKAYTTQSLASVAYQINALANNVLQLLDIQASQLRRMESSINHISQTVDIHKEKVARREIGILTTNKNTSRTHKIIAPANMERPVRYIRKPIDYTVLDDVGHGVKWLKAKHGNNQPARTGTLSRTNPPTQKPPSPPMS
notes: as for B2
On to B3, for which the binding result with biotinylated GST is on record as “no binding”.
